Drawing on patent publication US20230312654A1, this text covers EC50 for two substances.

Some results are limits rather than exact numbers.

In assay [1] the target is UFV180846 (influenza B virus B/Brisbane/60/08) (UniProt P22092).
Assay [2] deals with UFV180251 (influenza B virus B/Brisbane/60/08) (UniProt P22092).
Assay [3] deals with UFV180137 (influenza B virus B/Brisbane/60/08) (UniProt P22092).
Assay [4] has as its target UFV180131 (influenza B virus B/Brisbane/60/08) (UniProt P22092).
Assay [5] concerns the target UFV180284 (influenza B virus B/Brisbane/60/08) (UniProt P22092).

Broadly, the EC50 is the concentration that produces a half-maximal response. For monoclonal antibody CR8071, in assay [1], the EC50 was < 4.6 nM.
As to monoclonal antibody CR9114, the EC50 was < 2.6 nM in assay [2]; < 2.6 nM in assay [3]; < 4.6 nM in assay [1]; < 2.6 nM in assay [4]; < 2.6 nM in assay [5].
